Assay results from paper PMC5053157, “Crystal structure of yeast monothiol glutaredoxin Grx6 in complex with a glutathione-coordinated [2Fe–2S] cluster” (Acta Crystallographica. Section F, Structural Biology …, 2016).
Several values for one entry are separate records, joined by “and”; a condition that tells them apart may be missing. Equal entries are not always repeated.

Molecular target: the molecule itself
Experiment: SEC; HiLoad 16/60 Superdex 75; 20 mM NaCl, 50 mM Tris-HCl pH 8.0, 2 mM EDTA, 10 mM GSH; apparent molecular masses

B1: Saccharomyces cerevisiae glutaredoxin Grx6 without the signal peptide (residues Lys37-Asn231) (enzyme)
chain: KEETSKAFSTNMDNMAGGSSREYAAMPTSTTNKGSSEVDEEINEIKQKVGLQQPIASVDDSLSAIKNDKGSRITKAFNVQKEYSLILDLSPIIIFSKSTCSYSKGMKELLENEYQFIPNYYIIELDKHGHGEELQEYIKLVTGRGTVPNLLVNGVSRGGNEEIKKLHTQGKLLESLQVWSDGKFSVEQREKPSNNLEHHHHHH
stoichiometry N: 2 and 4
